Assay results taken from paper PMC9482650, “Quantitative fragmentomics allow affinity mapping of interactomes” (Nature Communications, 2022).

T1: MPP2, Q14168
T1 sequence (Q14168 180-250, limits assumed, looked up): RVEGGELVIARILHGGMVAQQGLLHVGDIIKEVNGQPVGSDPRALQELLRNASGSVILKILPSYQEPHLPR

T2: SYNJ2BP, P57105
T2 sequence (P57105 8-110, limits assumed, looked up): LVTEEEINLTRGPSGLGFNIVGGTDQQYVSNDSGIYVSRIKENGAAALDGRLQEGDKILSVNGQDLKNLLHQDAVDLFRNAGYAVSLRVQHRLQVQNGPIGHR

T3: APBA1_1, Q02410
T3 sequence (Q02410 651-752, limits assumed, looked up): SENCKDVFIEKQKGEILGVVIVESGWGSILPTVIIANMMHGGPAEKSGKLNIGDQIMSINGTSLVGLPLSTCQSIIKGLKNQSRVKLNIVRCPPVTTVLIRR

T4: APBA2_1, Q99767
T4 sequence (Q99767 563-664, limits assumed, looked up): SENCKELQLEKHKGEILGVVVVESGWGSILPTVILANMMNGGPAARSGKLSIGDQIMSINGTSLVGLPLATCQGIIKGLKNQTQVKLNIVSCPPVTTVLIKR

T5: RHPN1, Q8TCX5
T5 sequence (Q8TCX5 508-602, limits assumed, looked up): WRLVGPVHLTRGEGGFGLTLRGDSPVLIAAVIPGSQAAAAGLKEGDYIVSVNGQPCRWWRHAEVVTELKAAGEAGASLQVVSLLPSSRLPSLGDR

T6: LNX2_2, Q8N448
T6 sequence (Q8N448 334-432, limits assumed, looked up): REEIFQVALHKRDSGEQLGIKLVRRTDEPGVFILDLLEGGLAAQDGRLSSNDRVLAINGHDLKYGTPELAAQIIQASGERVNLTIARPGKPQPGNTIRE

T7: GRIP1_5, Q9Y3R0
T7 sequence (Q9Y3R0 568-668, limits assumed, looked up): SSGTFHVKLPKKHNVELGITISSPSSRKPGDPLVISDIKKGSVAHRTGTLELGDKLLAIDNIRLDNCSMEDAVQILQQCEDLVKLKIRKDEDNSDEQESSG

T8: DLG3_2, Q92796
T8 sequence (Q92796 221-321, limits assumed, looked up): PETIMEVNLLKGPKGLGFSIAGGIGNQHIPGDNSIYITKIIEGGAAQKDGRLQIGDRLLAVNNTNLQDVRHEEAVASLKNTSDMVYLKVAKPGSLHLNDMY

T9: NHERF3_1, Q5T2W1
T9 sequence (Q5T2W1 4-100, limits assumed, looked up): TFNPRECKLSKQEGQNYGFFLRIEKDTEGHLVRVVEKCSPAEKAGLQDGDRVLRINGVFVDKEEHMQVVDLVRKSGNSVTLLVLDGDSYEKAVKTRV

T10: NHERF3_3, Q5T2W1
T10 sequence (Q5T2W1 238-333, limits assumed, looked up): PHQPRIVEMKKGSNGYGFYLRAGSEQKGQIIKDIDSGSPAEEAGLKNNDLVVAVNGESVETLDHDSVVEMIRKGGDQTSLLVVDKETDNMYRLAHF

T11: GRIP1_3, Q9Y3R0
T11 sequence (Q9Y3R0 247-346, limits assumed, looked up): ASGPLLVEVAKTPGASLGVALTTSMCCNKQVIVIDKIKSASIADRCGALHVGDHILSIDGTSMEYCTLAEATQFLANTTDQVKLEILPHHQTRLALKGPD

T12: APBA1_2, Q02410
T12 sequence (Q02410 742-832, limits assumed, looked up): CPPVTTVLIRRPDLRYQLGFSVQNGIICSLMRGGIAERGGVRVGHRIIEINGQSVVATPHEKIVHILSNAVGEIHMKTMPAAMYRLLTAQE


Columns and labels:
Assay in all cases: holdup assay
Set-up in all cases: key: below the threshold = too weak to quantify, mostly under pKd 3.1 to 4
Settings in all cases: plain residues with an end cap or a label only (N-terminal biotin on a linker: ado-ado)
MAGI1_1, Q96QZ7 = biological target: MAGI1_1, Q96QZ7
MAGI1_1, Q96QZ7, sequence (Q96QZ7 1-106): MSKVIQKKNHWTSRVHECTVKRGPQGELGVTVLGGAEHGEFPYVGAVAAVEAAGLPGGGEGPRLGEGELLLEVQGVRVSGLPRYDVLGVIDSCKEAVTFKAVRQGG

GRID2IP_2, A4D2P6 = biological target: GRID2IP_2, A4D2P6
GRID2IP_2, A4D2P6, sequence (A4D2P6 272-370): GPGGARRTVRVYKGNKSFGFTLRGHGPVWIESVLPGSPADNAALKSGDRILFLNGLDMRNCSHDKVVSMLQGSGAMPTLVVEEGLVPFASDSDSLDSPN

GRIP2_4, Q9C0E4 = biological target: GRIP2_4, Q9C0E4
GRIP2_4, Q9C0E4, sequence (Q9C0E4 446-548): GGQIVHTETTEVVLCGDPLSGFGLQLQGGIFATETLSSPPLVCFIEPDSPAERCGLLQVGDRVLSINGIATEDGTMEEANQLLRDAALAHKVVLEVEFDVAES

MPP2, Q14168 = biological target: T1, MPP2, Q14168
SYNJ2BP, P57105 = biological target: T2, SYNJ2BP, P57105
PICK1, Q9NRD5 = biological target: PICK1, Q9NRD5
PICK1, Q9NRD5, sequence (Q9NRD5 17-115): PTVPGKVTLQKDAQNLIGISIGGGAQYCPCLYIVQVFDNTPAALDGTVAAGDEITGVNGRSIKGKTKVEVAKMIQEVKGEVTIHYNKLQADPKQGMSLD

IL16_3, Q14005 = biological target: IL16_3, Q14005
IL16_3, Q14005, sequence (Q14005 1107-1207): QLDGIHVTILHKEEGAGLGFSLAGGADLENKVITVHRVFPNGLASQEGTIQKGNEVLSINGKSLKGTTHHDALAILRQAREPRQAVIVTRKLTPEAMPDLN

APBA1_1, Q02410 = biological target: T3, APBA1_1, Q02410
APBA2_1, Q99767 = biological target: T4, APBA2_1, Q99767
RHPN1, Q8TCX5 = biological target: T5, RHPN1, Q8TCX5
NOS1, P29475 = biological target: NOS1, P29475
NOS1, P29475, sequence (P29475 9-101): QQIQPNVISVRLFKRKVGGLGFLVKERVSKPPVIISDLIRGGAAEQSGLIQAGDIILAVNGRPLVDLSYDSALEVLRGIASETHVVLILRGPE

LNX2_2, Q8N448 = biological target: T6, LNX2_2, Q8N448
HTRA1, Q92743 = biological target: HTRA1, Q92743
HTRA1, Q92743, sequence (Q92743 360-477): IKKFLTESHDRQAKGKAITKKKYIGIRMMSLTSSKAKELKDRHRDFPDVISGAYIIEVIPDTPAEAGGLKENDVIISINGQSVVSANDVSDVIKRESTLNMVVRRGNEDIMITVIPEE

GRIP1_5, Q9Y3R0 = biological target: T7, GRIP1_5, Q9Y3R0
GRIP2_5, Q9C0E4 = biological target: GRIP2_5, Q9C0E4
GRIP2_5, Q9C0E4, sequence (Q9C0E4 544-642): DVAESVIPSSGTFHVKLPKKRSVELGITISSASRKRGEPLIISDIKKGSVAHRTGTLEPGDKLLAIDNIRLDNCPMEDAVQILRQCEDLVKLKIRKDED

DLG4_1, P78352 = biological target: DLG4_1, P78352
DLG4_1, P78352, sequence (P78352 62-152): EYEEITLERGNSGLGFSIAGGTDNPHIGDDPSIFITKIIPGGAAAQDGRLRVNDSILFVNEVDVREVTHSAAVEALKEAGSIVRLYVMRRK

DLG3_2, Q92796 = biological target: T8, DLG3_2, Q92796
NHERF3_1, Q5T2W1 = biological target: T9, NHERF3_1, Q5T2W1
NHERF3_3, Q5T2W1 = biological target: T10, NHERF3_3, Q5T2W1
GRIP1_3, Q9Y3R0 = biological target: T11, GRIP1_3, Q9Y3R0
Inadl_8, Q8NI35 = biological target: Inadl_8, Q8NI35
Inadl_8, Q8NI35, sequence (Q8NI35 1425-1530): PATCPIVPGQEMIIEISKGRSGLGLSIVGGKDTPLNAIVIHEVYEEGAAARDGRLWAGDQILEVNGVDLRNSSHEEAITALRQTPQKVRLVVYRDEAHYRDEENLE

APBA1_2, Q02410 = biological target: T12, APBA1_2, Q02410
FRMPD3, Q5JV73 = biological target: FRMPD3, Q5JV73
FRMPD3, Q5JV73, sequence (Q5JV73 12-100): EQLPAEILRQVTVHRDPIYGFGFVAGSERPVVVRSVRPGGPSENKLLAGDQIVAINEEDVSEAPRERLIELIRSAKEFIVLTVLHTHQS

DLG2_3, Q15700 = biological target: DLG2_3, Q15700
PDLIM1, O00151 = biological target: PDLIM1, O00151
PDLIM1, O00151, sequence (O00151 1-87): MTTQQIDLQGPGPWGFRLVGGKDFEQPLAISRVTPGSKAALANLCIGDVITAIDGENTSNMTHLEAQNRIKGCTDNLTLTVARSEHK

DLG4_2, P78352 = biological target: DLG4_2, P78352
DLG4_2, P78352, sequence (P78352 155-259): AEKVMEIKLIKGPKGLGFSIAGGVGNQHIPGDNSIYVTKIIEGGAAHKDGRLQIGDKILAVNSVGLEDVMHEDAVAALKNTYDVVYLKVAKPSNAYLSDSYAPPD

| Binder | pKd (MAGI1_1, Q96QZ7) | pKd (GRID2IP_2, A4D2P6) | pKd (GRIP2_4, Q9C0E4) | pKd (MPP2, Q14168) | pKd (SYNJ2BP, P57105) | pKd (PICK1, Q9NRD5) | pKd (IL16_3, Q14005) | pKd (APBA1_1, Q02410) | pKd (APBA2_1, Q99767) | pKd (RHPN1, Q8TCX5) | pKd (NOS1, P29475) | pKd (LNX2_2, Q8N448) | pKd (HTRA1, Q92743) | pKd (GRIP1_5, Q9Y3R0) | pKd (GRIP2_5, Q9C0E4) | pKd (DLG4_1, P78352) | pKd (DLG3_2, Q92796) | pKd (NHERF3_1, Q5T2W1) | pKd (NHERF3_3, Q5T2W1) | pKd (GRIP1_3, Q9Y3R0) | further results |
| --- | --- | --- | --- | --- | --- | --- | --- | --- | --- | --- | --- | --- | --- | --- | --- | --- | --- | --- | --- | --- | --- |
| SGDGKTSVWI [GJC1, P36383] | below the threshold | 4.33 | below the threshold | below the threshold | below the threshold | below the threshold | below the threshold | 3.69 | below the threshold | below the threshold | 4.1 | 5.42 | 4.93 | below the threshold | below the threshold | below the threshold | 4.16 | 3.75 | below the threshold | below the threshold | pKd (Inadl_8, Q8NI35): below the threshold; pKd (APBA1_2, Q02410): 4.44; pKd (FRMPD3, Q5JV73): below the threshold; pKd (DLG2_3, Q15700): 3.83; pKd (PDLIM1, O00151): below the threshold; pKd (DLG4_2, P78352): 3.51 |
| GNDPDRGTSI [GRID2, O43424] | below the threshold | 4.16 | below the threshold | below the threshold | 4.72 | below the threshold | below the threshold | below the threshold | below the threshold | below the threshold | 3.75 | below the threshold | below the threshold | below the threshold | below the threshold | below the threshold | 4.25 | 3.64 | below the threshold | below the threshold | pKd (Inadl_8, Q8NI35): below the threshold; pKd (APBA1_2, Q02410): 3.65; pKd (FRMPD3, Q5JV73): below the threshold; pKd (DLG2_3, Q15700): 3.69; pKd (PDLIM1, O00151): below the threshold; pKd (DLG4_2, P78352): below the threshold |

More lines, main results first:

| pKd (MAGI1_1, Q96QZ7) | pKd (GRID2IP_2, A4D2P6) | pKd (GRIP2_4, Q9C0E4) | pKd (MPP2, Q14168) | pKd (SYNJ2BP, P57105) | pKd (PICK1, Q9NRD5) | pKd (IL16_3, Q14005) | pKd (APBA1_1, Q02410) | pKd (APBA2_1, Q99767) | pKd (RHPN1, Q8TCX5) | pKd (NOS1, P29475) | pKd (LNX2_2, Q8N448) | pKd (HTRA1, Q92743) | pKd (GRIP1_5, Q9Y3R0) | pKd (GRIP2_5, Q9C0E4) | pKd (DLG4_1, P78352) | pKd (DLG3_2, Q92796) | pKd (NHERF3_1, Q5T2W1) | pKd (NHERF3_3, Q5T2W1) | pKd (GRIP1_3, Q9Y3R0) | Binder | further results |
| --- | --- | --- | --- | --- | --- | --- | --- | --- | --- | --- | --- | --- | --- | --- | --- | --- | --- | --- | --- | --- | --- |
| below the threshold | below the threshold | below the threshold | below the threshold | below the threshold | below the threshold | below the threshold | below the threshold | below the threshold | below the threshold | 3.75 | 4.7 | 4.97 | below the threshold | below the threshold | below the threshold | 4.2 | below the threshold | below the threshold | below the threshold | DFKHTKSFII [JAM2, P57087] | pKd (Inadl_8, Q8NI35): below the threshold; pKd (APBA1_2, Q02410): below the threshold; pKd (FRMPD3, Q5JV73): below the threshold; pKd (DLG2_3, Q15700): 3.75; pKd (PDLIM1, O00151): below the threshold; pKd (DLG4_2, P78352): below the threshold |
| 3.49 | below the threshold | below the threshold | below the threshold | below the threshold | 4.27 | below the threshold | below the threshold | below the threshold | below the threshold | 3.97 | 5.22 | 5.15 | below the threshold | below the threshold | below the threshold | 4.2 | 4.16 | below the threshold | below the threshold | EFKQTSSFLV [JAM1, Q9Y624] | pKd (Inadl_8, Q8NI35): below the threshold; pKd (APBA1_2, Q02410): 3.5; pKd (FRMPD3, Q5JV73): below the threshold; pKd (DLG2_3, Q15700): 3.63; pKd (PDLIM1, O00151): below the threshold; pKd (DLG4_2, P78352): 3.47 |
